Measured values: article PMC10516925, “Determining subunit-subunit interaction from statistics of cryo-EM images: observation of nearest-neighbor coupling in a circadian clock protein complex” (Nature Communications, 2023)

B1: KaiC-EE (S431E, T432E) (natural protein)
chain: EHQAIAKMRTMIEGFDDISHGGLPIGRSTLVSGTSGTGKTLFSIQFLYNGIIEFDEPGVFVTFEETPQDIIKNARSFGWDLAKLVDEGKLFILDASPDPEGQEVVGGFDLSALIERINYAIQKYRARRVSIDSVTSVFQQYDASSVVRRELFRLVARLKQIGATTVMTTERIEEYGPIARYGVEEFVSDNVVILRNVLEGERRRRTLEILKLRGTSHMKGEYPFTITDHGINIFPLGAMRLTQRSSNVRVSSGVVRLDEMCGGGFFKDSIILATGATGTGKTLLVSRFVENACANKERAILFAYEESRAQLLRNAYSWGMDFEEMERQNLLKIVCAYPESAGLEDHLQIIKSEINDFKPARIAIDSLSALARGVSNNAFRQFVIGVTGYAKQEEITGLFTNTSDQFMGAHSITDSHIEEITDTIILLQYVEIRGEMSRAINVFKMRGSWHDKAIREFMISDKGPDIKDSFRNFERIISGSPTRI
notes: source: hexamer fractions selected; not shown: His6, N-terminal, cleaved

How the values were obtained:
[1] = target: KaiC-AA (S431A, T432A) (UniProt Q79PF4); test: cryo-EM structure; single-particle cryo-EM of pure KaiC-AA or KaiC-EE, 0.35 ug/ul in 20 mM Tris-HCl (pH 8.0), 150 mM NaCl, 5 mM MgCl2, 0.5 mM EDTA, 1 mM ATP; incubated at 30 °C for 6 h
[2] = target: the molecule itself; test: as above

Molecule	stoichiometry N [1]	stoichiometry N [2]
KaiC-AA (S431A, T432A) (from UniProt Q79PF4 14-484) (natural protein)	6	–
B1	–	6
